Test results as given in article PMC314469, “Protein Interaction Networks by Proteome Peptide Scanning” (PLoS Biology, 2004).

T1: Boi1 SH3 (BOI1_YEAST), P38041
T1 chain: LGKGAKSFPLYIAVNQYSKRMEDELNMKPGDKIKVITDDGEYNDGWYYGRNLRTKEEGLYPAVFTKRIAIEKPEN

T2: Boi2 SH3 (BOI2_YEAST), P39969
T2 chain: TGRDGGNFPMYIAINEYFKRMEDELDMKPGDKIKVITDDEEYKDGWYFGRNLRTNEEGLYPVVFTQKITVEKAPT

T3: Myo5 SH3 (MYO5_YEAST), Q04439
T3 chain: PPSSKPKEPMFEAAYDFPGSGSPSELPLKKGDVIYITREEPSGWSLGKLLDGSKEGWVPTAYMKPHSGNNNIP

T4: Rvs167 SH3 (RV167_YEAST), P39743
T4 chain: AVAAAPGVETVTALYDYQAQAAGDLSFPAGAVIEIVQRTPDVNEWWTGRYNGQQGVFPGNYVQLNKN

T5: Yfr024 SH3 (LSB3_YEAST), P43603
T5 chain: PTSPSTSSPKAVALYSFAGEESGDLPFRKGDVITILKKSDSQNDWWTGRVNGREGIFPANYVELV

T6: Yhr016c SH3 (YSC84_YEAST), P32793
T6 chain: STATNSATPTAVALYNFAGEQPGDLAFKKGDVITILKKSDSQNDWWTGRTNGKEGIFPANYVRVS


Target: T1, Boi1 SH3 (BOI1_YEAST), P38041
Assay: SPOT array

Row | Binder | normalised SPOT signal, Boehringer light units (BLU); mean over the file's lines of this peptide
1 | RRLKKNLPSLPTPV [YOR127W 138-151] | 1760
2 | RYPFRMIPELPPKR [YMR004W 186-199] | 14100
3 | SDNSKSEPLPPVIT [YFR019W 1795-1808] | 0
4 | RTFFKLPPNLPEAE [YHR017W 94-107] | 220
5 | RPVYRLKPNAPFQY [YLR072W 370-383] | 72
6 | SANGKFIPSRPAPK [YHL007C 465-478] | 128
7 | RLVSKYRPNSPIIL [YAL038W 409-422] | 246
8 | RRRTRLRPPTPLSQ [YPL269W 616-629] | 137
9 | RYSFKLLPPQPGSK [YER114C 841-854] | 796
10 | RSRSKKDPGIPSNF [YER006W 41-54] | 585
11 | RMQQKNSPAFPTHS [YGR056W 183-196] | 4830

The next lines start with the values.

Row | normalised SPOT signal, Boehringer light units (BLU); mean over the file's lines of this peptide | Binder
12 | 66.4 | SEAKRKFPEAPEVP [YNL121C 455-468]
13 | 299 | RRHNRQHPPYPHSG [YNL165W 14-27]
14 | 89 | RRKLRTVPGVPLIH [YOR004W 127-140]
15 | 920 | RRIRKEHPGEPNVI [YOR090C 334-347]
16 | 28.1 | RTPSKPDPMEPENT [YOR196C 194-207]

Target: T2, Boi2 SH3 (BOI2_YEAST), P39969
Assay: SPOT array

Row | Binder | normalised SPOT signal, Boehringer light units (BLU); mean over the file's lines of this peptide
17 | RRLKKNLPSLPTPV [YOR127W 138-151] | 41.1
18 | RYPFRMIPELPPKR [YMR004W 186-199] | 552
19 | SDNSKSEPLPPVIT [YFR019W 1795-1808] | 1.4
20 | RTFFKLPPNLPEAE [YHR017W 94-107] | 5.1
21 | RPVYRLKPNAPFQY [YLR072W 370-383] | 78.2
22 | SANGKFIPSRPAPK [YHL007C 465-478] | 5.4
23 | RLVSKYRPNSPIIL [YAL038W 409-422] | 74
24 | RRRTRLRPPTPLSQ [YPL269W 616-629] | 41.1
25 | RYSFKLLPPQPGSK [YER114C 841-854] | 47.8
26 | RSRSKKDPGIPSNF [YER006W 41-54] | 6.9
27 | RMQQKNSPAFPTHS [YGR056W 183-196] | 227

Now from value to binder:

Row | normalised SPOT signal, Boehringer light units (BLU); mean over the file's lines of this peptide | Binder
28 | 7 | SEAKRKFPEAPEVP [YNL121C 455-468]
29 | 16 | RRHNRQHPPYPHSG [YNL165W 14-27]
30 | 20.1 | RRKLRTVPGVPLIH [YOR004W 127-140]
31 | 9 | RRIRKEHPGEPNVI [YOR090C 334-347]
32 | 35.4 | RTPSKPDPMEPENT [YOR196C 194-207]

Target: T3, Myo5 SH3 (MYO5_YEAST), Q04439
Assay: SPOT array

Row | Binder | normalised SPOT signal, Boehringer light units (BLU); mean over the file's lines of this peptide
33 | RRLKKNLPSLPTPV [YOR127W 138-151] | 824
34 | RYPFRMIPELPPKR [YMR004W 186-199] | 3570
35 | SDNSKSEPLPPVIT [YFR019W 1795-1808] | 130
36 | RTFFKLPPNLPEAE [YHR017W 94-107] | 2610
37 | RPVYRLKPNAPFQY [YLR072W 370-383] | 210
38 | SANGKFIPSRPAPK [YHL007C 465-478] | 6760
39 | RLVSKYRPNSPIIL [YAL038W 409-422] | 286
40 | RRRTRLRPPTPLSQ [YPL269W 616-629] | 1510
41 | RYSFKLLPPQPGSK [YER114C 841-854] | 190
42 | RSRSKKDPGIPSNF [YER006W 41-54] | 800
43 | RMQQKNSPAFPTHS [YGR056W 183-196] | 1280

Continued, values first:

Row | normalised SPOT signal, Boehringer light units (BLU); mean over the file's lines of this peptide | Binder
44 | 393 | SEAKRKFPEAPEVP [YNL121C 455-468]
45 | 1290 | RRHNRQHPPYPHSG [YNL165W 14-27]
46 | 2010 | RRKLRTVPGVPLIH [YOR004W 127-140]
47 | 308 | RRIRKEHPGEPNVI [YOR090C 334-347]
48 | 187 | RTPSKPDPMEPENT [YOR196C 194-207]

Target: T4, Rvs167 SH3 (RV167_YEAST), P39743
Assay: SPOT array

Row | Binder | normalised SPOT signal, Boehringer light units (BLU); mean over the file's lines of this peptide
49 | RRLKKNLPSLPTPV [YOR127W 138-151] | 280
50 | RYPFRMIPELPPKR [YMR004W 186-199] | 14800
51 | SDNSKSEPLPPVIT [YFR019W 1795-1808] | 54.5
52 | RTFFKLPPNLPEAE [YHR017W 94-107] | 204
53 | RPVYRLKPNAPFQY [YLR072W 370-383] | 148
54 | SANGKFIPSRPAPK [YHL007C 465-478] | 147
55 | RLVSKYRPNSPIIL [YAL038W 409-422] | 233
56 | RRRTRLRPPTPLSQ [YPL269W 616-629] | 423
57 | RYSFKLLPPQPGSK [YER114C 841-854] | 84
58 | RSRSKKDPGIPSNF [YER006W 41-54] | 159
59 | RMQQKNSPAFPTHS [YGR056W 183-196] | 1150

Further lines, results first:

Row | normalised SPOT signal, Boehringer light units (BLU); mean over the file's lines of this peptide | Binder
60 | 116 | SEAKRKFPEAPEVP [YNL121C 455-468]
61 | 51.8 | RRHNRQHPPYPHSG [YNL165W 14-27]
62 | 6330 | RRKLRTVPGVPLIH [YOR004W 127-140]
63 | 106 | RRIRKEHPGEPNVI [YOR090C 334-347]
64 | 19.3 | RTPSKPDPMEPENT [YOR196C 194-207]

Target: Sho1 SH3 (SHO1_YEAST), P40073
Sequence (P40073 295-366): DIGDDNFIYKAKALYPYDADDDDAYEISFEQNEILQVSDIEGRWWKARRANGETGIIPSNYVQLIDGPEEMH
Assay: SPOT array

Row | Binder | normalised SPOT signal, Boehringer light units (BLU); mean over the file's lines of this peptide
65 | RRLKKNLPSLPTPV [YOR127W 138-151] | 27000
66 | RYPFRMIPELPPKR [YMR004W 186-199] | 2730
67 | SDNSKSEPLPPVIT [YFR019W 1795-1808] | 23.8
68 | RTFFKLPPNLPEAE [YHR017W 94-107] | 154
69 | RPVYRLKPNAPFQY [YLR072W 370-383] | 60.1
70 | SANGKFIPSRPAPK [YHL007C 465-478] | 75.2
71 | RLVSKYRPNSPIIL [YAL038W 409-422] | 42.5
72 | RRRTRLRPPTPLSQ [YPL269W 616-629] | 76.1
73 | RYSFKLLPPQPGSK [YER114C 841-854] | 15500
74 | RSRSKKDPGIPSNF [YER006W 41-54] | 118
75 | RMQQKNSPAFPTHS [YGR056W 183-196] | 1220

More lines, now with the values ahead:

Row | normalised SPOT signal, Boehringer light units (BLU); mean over the file's lines of this peptide | Binder
76 | 3.8 | SEAKRKFPEAPEVP [YNL121C 455-468]
77 | 65.3 | RRHNRQHPPYPHSG [YNL165W 14-27]
78 | 85.3 | RRKLRTVPGVPLIH [YOR004W 127-140]
79 | 123 | RRIRKEHPGEPNVI [YOR090C 334-347]
80 | 18 | RTPSKPDPMEPENT [YOR196C 194-207]

Target: T5, Yfr024 SH3 (LSB3_YEAST), P43603
Assay: SPOT array

Row | Binder | normalised SPOT signal, Boehringer light units (BLU); mean over the file's lines of this peptide
81 | RRLKKNLPSLPTPV [YOR127W 138-151] | 395
82 | RYPFRMIPELPPKR [YMR004W 186-199] | 18600
83 | SDNSKSEPLPPVIT [YFR019W 1795-1808] | 21.6
84 | RTFFKLPPNLPEAE [YHR017W 94-107] | 1050
85 | RPVYRLKPNAPFQY [YLR072W 370-383] | 583
86 | SANGKFIPSRPAPK [YHL007C 465-478] | 539
87 | RLVSKYRPNSPIIL [YAL038W 409-422] | 565
88 | RRRTRLRPPTPLSQ [YPL269W 616-629] | 819
89 | RYSFKLLPPQPGSK [YER114C 841-854] | 352
90 | RSRSKKDPGIPSNF [YER006W 41-54] | 360
91 | RMQQKNSPAFPTHS [YGR056W 183-196] | 4550

Continued, values first:

Row | normalised SPOT signal, Boehringer light units (BLU); mean over the file's lines of this peptide | Binder
92 | 18.5 | SEAKRKFPEAPEVP [YNL121C 455-468]
93 | 667 | RRHNRQHPPYPHSG [YNL165W 14-27]
94 | 2640 | RRKLRTVPGVPLIH [YOR004W 127-140]
95 | 570 | RRIRKEHPGEPNVI [YOR090C 334-347]
96 | 78.9 | RTPSKPDPMEPENT [YOR196C 194-207]

Target: T6, Yhr016c SH3 (YSC84_YEAST), P32793
Assay: SPOT array

Row | Binder | normalised SPOT signal, Boehringer light units (BLU); mean over the file's lines of this peptide
97 | RRLKKNLPSLPTPV [YOR127W 138-151] | 50.6
98 | RYPFRMIPELPPKR [YMR004W 186-199] | 7330
99 | SDNSKSEPLPPVIT [YFR019W 1795-1808] | 32.7
100 | RTFFKLPPNLPEAE [YHR017W 94-107] | 32.8
101 | RPVYRLKPNAPFQY [YLR072W 370-383] | 129
102 | SANGKFIPSRPAPK [YHL007C 465-478] | 14.7
103 | RLVSKYRPNSPIIL [YAL038W 409-422] | 108
104 | RRRTRLRPPTPLSQ [YPL269W 616-629] | 104
105 | RYSFKLLPPQPGSK [YER114C 841-854] | 23.5
106 | RSRSKKDPGIPSNF [YER006W 41-54] | 52.3
107 | RMQQKNSPAFPTHS [YGR056W 183-196] | 1510

Second part, the binder after the results:

Row | normalised SPOT signal, Boehringer light units (BLU); mean over the file's lines of this peptide | Binder
108 | 19.7 | SEAKRKFPEAPEVP [YNL121C 455-468]
109 | 43.4 | RRHNRQHPPYPHSG [YNL165W 14-27]
110 | 772 | RRKLRTVPGVPLIH [YOR004W 127-140]
111 | 60.5 | RRIRKEHPGEPNVI [YOR090C 334-347]
112 | 21.1 | RTPSKPDPMEPENT [YOR196C 194-207]
